From patent US20190233493A1 (Sanofi, published 2019)
*1 amine or outer side, *2 acyl side, *3 side chain or, on linkers, in order; H or OH if unused. Side-chain parts run from the residue outwards. [ ]: non-standard residue; d: D form. The star is where a group is joined. PEG12 = NCCOCCOCCOCCOCCOCCOCCOCCOCCOCCOCCOCCOCCC(=O)O; γGlu = O=C(O)[C@H](CCC(=O)[*:2])N[*:1]; 1Nal = N[C@@H](Cc1cccc2ccccc12)C(=O)O; Stearoyl = CCCCCCCCCCCCCCCCCC(=O)*; Palmitoyl = CCCCCCCCCCCCCCCC(=O)*; Nle = CCCC[C@H](N)C(=O)O; Aib = CC(C)(N)C(=O)O

B1: peptide of SEQ ID NO: 30 (peptide)
peptide: Ac-LEGREKVRAQI[Aib][Aib]EG[Nle]STWS[Aib]RK[PEG12]K([γGlu-γGlu-γGlu-Stearoyl])-NH2
SMILES: CCCCCCCCCCCCCCCCCC(=O)N[C@@H](CCC(=O)N[C@@H](CCC(=O)N[C@@H](CCC(=O)NCCCC[C@H](NC(=O)CCOCCOCCOCCOCCOCCOCCOCCOCCOCCOCCOCCOCCNC(=O)[C@H](CCCCN)NC(=O)[C@H](CCCNC(=N)N)NC(=O)C(C)(C)NC(=O)[C@H](CO)NC(=O)[C@H](Cc1c[nH]c2ccccc12)NC(=O)[C@@H](NC(=O)[C@H](CO)NC(=O)[C@H](CCCC)NC(=O)CNC(=O)[C@H](CCC(=O)O)NC(=O)C(C)(C)NC(=O)C(C)(C)NC(=O)[C@@H](NC(=O)[C@H](CCC(N)=O)NC(=O)[C@H](C)NC(=O)[C@H](CCCNC(=N)N)NC(=O)[C@@H](NC(=O)[C@H](CCCCN)NC(=O)[C@H](CCC(=O)O)NC(=O)[C@H](CCCNC(=N)N)NC(=O)CNC(=O)[C@H](CCC(=O)O)NC(=O)[C@H](CC(C)C)NC(C)=O)C(C)C)[C@@H](C)CC)[C@@H](C)O)C(N)=O)C(=O)O)C(=O)O)C(=O)O
B2: peptide of SEQ ID NO: 32 (peptide)
peptide: Ac-LEGREKVRAK(Ac)I[Aib][Aib]EG[Nle]STWS[Aib]RKK[PEG12]K([γGlu-γGlu-γGlu-Stearoyl])-NH2
SMILES: CCCCCCCCCCCCCCCCCC(=O)N[C@@H](CCC(=O)N[C@@H](CCC(=O)N[C@@H](CCC(=O)NCCCC[C@H](NC(=O)CCOCCOCCOCCOCCOCCOCCOCCOCCOCCOCCOCCOCCNC(=O)[C@H](CCCCN)NC(=O)[C@H](CCCCN)NC(=O)[C@H](CCCNC(=N)N)NC(=O)C(C)(C)NC(=O)[C@H](CO)NC(=O)[C@H](Cc1c[nH]c2ccccc12)NC(=O)[C@@H](NC(=O)[C@H](CO)NC(=O)[C@H](CCCC)NC(=O)CNC(=O)[C@H](CCC(=O)O)NC(=O)C(C)(C)NC(=O)C(C)(C)NC(=O)[C@@H](NC(=O)[C@H](CCCCNC(C)=O)NC(=O)[C@H](C)NC(=O)[C@H](CCCNC(=N)N)NC(=O)[C@@H](NC(=O)[C@H](CCCCN)NC(=O)[C@H](CCC(=O)O)NC(=O)[C@H](CCCNC(=N)N)NC(=O)CNC(=O)[C@H](CCC(=O)O)NC(=O)[C@H](CC(C)C)NC(C)=O)C(C)C)[C@@H](C)CC)[C@@H](C)O)C(N)=O)C(=O)O)C(=O)O)C(=O)O
B3: peptide of SEQ ID NO: 33 (peptide)
peptide: Ac-LEGREKVRAK(Ac)I[Aib][Aib]EG[Nle]STWS[Aib]RKK(Ac)[PEG12]K([γGlu-γGlu-γGlu-Stearoyl])-NH2
SMILES: CCCCCCCCCCCCCCCCCC(=O)N[C@@H](CCC(=O)N[C@@H](CCC(=O)N[C@@H](CCC(=O)NCCCC[C@H](NC(=O)CCOCCOCCOCCOCCOCCOCCOCCOCCOCCOCCOCCOCCNC(=O)[C@H](CCCCNC(C)=O)NC(=O)[C@H](CCCCN)NC(=O)[C@H](CCCNC(=N)N)NC(=O)C(C)(C)NC(=O)[C@H](CO)NC(=O)[C@H](Cc1c[nH]c2ccccc12)NC(=O)[C@@H](NC(=O)[C@H](CO)NC(=O)[C@H](CCCC)NC(=O)CNC(=O)[C@H](CCC(=O)O)NC(=O)C(C)(C)NC(=O)C(C)(C)NC(=O)[C@@H](NC(=O)[C@H](CCCCNC(C)=O)NC(=O)[C@H](C)NC(=O)[C@H](CCCNC(=N)N)NC(=O)[C@@H](NC(=O)[C@H](CCCCN)NC(=O)[C@H](CCC(=O)O)NC(=O)[C@H](CCCNC(=N)N)NC(=O)CNC(=O)[C@H](CCC(=O)O)NC(=O)[C@H](CC(C)C)NC(C)=O)C(C)C)[C@@H](C)CC)[C@@H](C)O)C(N)=O)C(=O)O)C(=O)O)C(=O)O
B4: peptide of SEQ ID NO: 35 (peptide)
peptide: Ac-LEGREKVRAK(Ac)I[Aib][Aib]EGMSTWS[Aib]RK[PEG12]K([γGlu-γGlu-γGlu-Stearoyl])-NH2
SMILES: CCCCCCCCCCCCCCCCCC(=O)N[C@@H](CCC(=O)N[C@@H](CCC(=O)N[C@@H](CCC(=O)NCCCC[C@H](NC(=O)CCOCCOCCOCCOCCOCCOCCOCCOCCOCCOCCOCCOCCNC(=O)[C@H](CCCCN)NC(=O)[C@H](CCCNC(=N)N)NC(=O)C(C)(C)NC(=O)[C@H](CO)NC(=O)[C@H](Cc1c[nH]c2ccccc12)NC(=O)[C@@H](NC(=O)[C@H](CO)NC(=O)[C@H](CCSC)NC(=O)CNC(=O)[C@H](CCC(=O)O)NC(=O)C(C)(C)NC(=O)C(C)(C)NC(=O)[C@@H](NC(=O)[C@H](CCCCNC(C)=O)NC(=O)[C@H](C)NC(=O)[C@H](CCCNC(=N)N)NC(=O)[C@@H](NC(=O)[C@H](CCCCN)NC(=O)[C@H](CCC(=O)O)NC(=O)[C@H](CCCNC(=N)N)NC(=O)CNC(=O)[C@H](CCC(=O)O)NC(=O)[C@H](CC(C)C)NC(C)=O)C(C)C)[C@@H](C)CC)[C@@H](C)O)C(N)=O)C(=O)O)C(=O)O)C(=O)O
B5: peptide of SEQ ID NO: 29 (peptide)
peptide: Ac-LEGREKVRAK(Ac)I[Aib][Aib]EG[Nle]ST[1Nal]S[Aib]RK[PEG12]K([γGlu-γGlu-γGlu-Palmitoyl])-NH2
SMILES: CCCCCCCCCCCCCCCC(=O)N[C@@H](CCC(=O)N[C@@H](CCC(=O)N[C@@H](CCC(=O)NCCCC[C@H](NC(=O)CCOCCOCCOCCOCCOCCOCCOCCOCCOCCOCCOCCOCCNC(=O)[C@H](CCCCN)NC(=O)[C@H](CCCNC(=N)N)NC(=O)C(C)(C)NC(=O)[C@H](CO)NC(=O)[C@H](Cc1cccc2ccccc12)NC(=O)[C@@H](NC(=O)[C@H](CO)NC(=O)[C@H](CCCC)NC(=O)CNC(=O)[C@H](CCC(=O)O)NC(=O)C(C)(C)NC(=O)C(C)(C)NC(=O)[C@@H](NC(=O)[C@H](CCCCNC(C)=O)NC(=O)[C@H](C)NC(=O)[C@H](CCCNC(=N)N)NC(=O)[C@@H](NC(=O)[C@H](CCCCN)NC(=O)[C@H](CCC(=O)O)NC(=O)[C@H](CCCNC(=N)N)NC(=O)CNC(=O)[C@H](CCC(=O)O)NC(=O)[C@H](CC(C)C)NC(C)=O)C(C)C)[C@@H](C)CC)[C@@H](C)O)C(N)=O)C(=O)O)C(=O)O)C(=O)O
B6: peptide of SEQ ID NO: 4 (peptide)
peptide: Ac-ELEGREKVRAAI[Aib][Aib]EG[Nle]STWS[Aib]RKK([γGlu-γGlu-Palmitoyl])-NH2
SMILES: CCCCCCCCCCCCCCCC(=O)N[C@@H](CCC(=O)N[C@@H](CCC(=O)NCCCC[C@H](NC(=O)[C@H](CCCCN)NC(=O)[C@H](CCCNC(=N)N)NC(=O)C(C)(C)NC(=O)[C@H](CO)NC(=O)[C@H](Cc1c[nH]c2ccccc12)NC(=O)[C@@H](NC(=O)[C@H](CO)NC(=O)[C@H](CCCC)NC(=O)CNC(=O)[C@H](CCC(=O)O)NC(=O)C(C)(C)NC(=O)C(C)(C)NC(=O)[C@@H](NC(=O)[C@H](C)NC(=O)[C@H](C)NC(=O)[C@H](CCCNC(=N)N)NC(=O)[C@@H](NC(=O)[C@H](CCCCN)NC(=O)[C@H](CCC(=O)O)NC(=O)[C@H](CCCNC(=N)N)NC(=O)CNC(=O)[C@H](CCC(=O)O)NC(=O)[C@H](CC(C)C)NC(=O)[C@H](CCC(=O)O)NC(C)=O)C(C)C)[C@@H](C)CC)[C@@H](C)O)C(N)=O)C(=O)O)C(=O)O
B7: peptide of SEQ ID NO: 31 (peptide)
peptide: Ac-LEGREKVRAQI[Aib][Aib]EG[Nle]STWS[Aib]RKK[PEG12]K([γGlu-γGlu-γGlu-Stearoyl])-NH2
SMILES: CCCCCCCCCCCCCCCCCC(=O)N[C@@H](CCC(=O)N[C@@H](CCC(=O)N[C@@H](CCC(=O)NCCCC[C@H](NC(=O)CCOCCOCCOCCOCCOCCOCCOCCOCCOCCOCCOCCOCCNC(=O)[C@H](CCCCN)NC(=O)[C@H](CCCCN)NC(=O)[C@H](CCCNC(=N)N)NC(=O)C(C)(C)NC(=O)[C@H](CO)NC(=O)[C@H](Cc1c[nH]c2ccccc12)NC(=O)[C@@H](NC(=O)[C@H](CO)NC(=O)[C@H](CCCC)NC(=O)CNC(=O)[C@H](CCC(=O)O)NC(=O)C(C)(C)NC(=O)C(C)(C)NC(=O)[C@@H](NC(=O)[C@H](CCC(N)=O)NC(=O)[C@H](C)NC(=O)[C@H](CCCNC(=N)N)NC(=O)[C@@H](NC(=O)[C@H](CCCCN)NC(=O)[C@H](CCC(=O)O)NC(=O)[C@H](CCCNC(=N)N)NC(=O)CNC(=O)[C@H](CCC(=O)O)NC(=O)[C@H](CC(C)C)NC(C)=O)C(C)C)[C@@H](C)CC)[C@@H](C)O)C(N)=O)C(=O)O)C(=O)O)C(=O)O

Molecular target: T1, RXFP1 receptor (UniProt Q9HBX9 1-757, limits assumed)
T1 sequence (looked up): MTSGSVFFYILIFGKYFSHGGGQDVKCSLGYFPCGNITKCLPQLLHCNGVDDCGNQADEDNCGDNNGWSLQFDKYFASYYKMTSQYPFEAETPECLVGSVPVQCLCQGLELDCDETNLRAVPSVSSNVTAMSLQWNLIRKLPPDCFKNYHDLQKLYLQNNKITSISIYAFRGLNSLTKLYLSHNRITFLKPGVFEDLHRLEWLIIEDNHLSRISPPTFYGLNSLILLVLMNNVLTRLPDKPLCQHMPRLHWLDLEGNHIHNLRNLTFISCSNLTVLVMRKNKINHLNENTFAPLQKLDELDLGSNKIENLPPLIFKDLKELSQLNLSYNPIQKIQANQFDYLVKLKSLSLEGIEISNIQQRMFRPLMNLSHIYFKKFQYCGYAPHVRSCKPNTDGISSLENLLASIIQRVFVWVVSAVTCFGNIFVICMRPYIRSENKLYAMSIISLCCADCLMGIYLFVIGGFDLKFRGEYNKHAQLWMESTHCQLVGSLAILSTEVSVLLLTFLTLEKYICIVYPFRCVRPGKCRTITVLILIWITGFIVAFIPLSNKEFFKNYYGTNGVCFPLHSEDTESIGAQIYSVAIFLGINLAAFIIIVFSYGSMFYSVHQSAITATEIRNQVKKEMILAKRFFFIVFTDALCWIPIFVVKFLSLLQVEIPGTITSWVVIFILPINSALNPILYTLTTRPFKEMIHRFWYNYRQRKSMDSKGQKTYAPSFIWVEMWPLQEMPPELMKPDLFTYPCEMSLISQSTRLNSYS
Assay: cell-based or functional assay

| Binder | EC50 (nM), OVCAR 5 cells (cAMP) | EMax, OVCAR 5 cells (cAMP) |
| --- | --- | --- |
| B1 | 0.92 nM | 89% |
| B2 | 1.04 nM | 96% |
| B3 | 0.61 nM | 100% |
| B4 | 1.69 nM | 95% |
| B5 | 2.5 nM | 78% |
| B6 | 31.7 nM | 99% |
| B7 | 0.71 nM | 86% |
| Ac-LEGREKVRAK(Ac)I[Aib][Aib]EG[Nle]STWS[Aib]RK[PEG12]K([γGlu-γGlu-γGlu-Stearoyl])-NH2 [peptide of SEQ ID NO: 34] | 4.73 nM | 95% |
